Measurements reported in the supplement of paper PMC12455559.

Assay: purified protein yield per well (BCA); higher = higher soluble expression
Description: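 Candidate PET hydrolases were expressed in E. coli C41(DE3) in 2 mL autoinduction cultures in 24-deep-well plates, Ni-bead purified and released by SUMO protease cleavage on an OT-2 robot. Yield per well was measured by BCA; values below 25 ug (0.1 mg/mL) are below the detection threshold. Melting temperature was measured by differential scanning fluorimetry with Sypro Orange, ramping from 25 C at 0.3 C/step.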

Sequence | purified protein yield per well
FPAVVLAVSKQPHTDTRALTDEIKTALREIEPSLPAEITVNAELFQMKRFIDTGVWNVGEALAIGAVVVQPTGAGAQTGEFRKGPDPTEASVRASSGTFTTTTASVSSLVAGFGGGTIHYPTDTSQGTYGAIAFAPGFTASSASYSWIGPRIASQGFVVFLINTDSRYDFPASRATQLQNALNYLVNSSVAASRIDLNRLAVG [TEP030] | < 25 µg
APAHHAAPAHAAAHHHAPFAVRATVVPKTAVKAFGGGVIYTPQDTGKPVLGAVVITPGFTNTNADEKQLGELVASQGFVAFVIDTLDTGDLPDQRATEILAAADYLTGQSAVRSEVSAKDVGLIGYSFGGGGTMQAAQARPSIKAAIGLMPFDFPPASDPDAQYPAYPKLTTPTLVITGQKDDVADPADFGKPAYDSIPAGTPKQYLELKGLDHYAGEHAPVAAIRNAVTAFLKRYLDGNSAYAKFICPAPKVGGPITASYSSCPKG [ESM112] | < 25 µg
DSTSDQHGPDPTKASIEAERGPFDVARVTVPRAGASGFGGGTIYYPSSTEEGKFGAVAIAPGFTASQSSMAWFGPRLASQGFVVFTIDTVTTSDQPDMRGDELRAALRYLTGSSKVKDRIDADRLAVMGHSMGGGGTLEAAKDDPALRAAIPLTPWDLNKNFSRVKTPTMIIGGQSDTIAPVASHSEPFYRSLPDTASKAYLELRGASHFAPNMPNTTIAEYSISWLKRFVDDDRRYDQFLCPAPGASVQISQYLSTCPY [TEP166] | < 25 µg
PWTSYSAGATVYYPRTATAPFSAIVFMQPYTGTQAMNYAWGPWFASHGIVYVNYDSTTTLDTVDSRATQQMNAINALKNENNRSASPLYRKLDTSRIGVMGWSMGGGASWINSANSSIKTAMSLAGHSLTAVSIYKSGRYTKCPTMIFSGLLDTTYLGGMGQSEGVYRNIPSGIAKIHYEVRSAGHMAWGSPTSASSNVAKIALAFQKTFLDGDTRWAAYLTQPSDASTWNTASLPSTGGTTPDYPWWYWWR [TEP072] | < 25 µg
LTLDDLKKDGPYAISAQTIPASGFGKGTVYSPNTPGKYALVAVCPGFVSAESSITEISKRLATHGFVVVTIGTKTLLDFPSSRASQLLAALKAASAVTTGPAAGKIDVTRQVVAGWSMGGGGTLEAAAATPGLKAAVAYAPWNLSSSKYKSITVPSAIIGGTADSVAPVSSHSQPFYNAIPATTPKLLGVIQGADHFFPNKAAEPASYTNIAWVKRFADGDTQYGVFLRGQDAAWASFVSTGPF [ESM117] | < 25 µg
SSVNCDSLAQIALLNPGPYSVSSLDESDNIRNGPDYAGAHIYYPTNASGSLSSIVLVPGFMNFESTLQNWGPFLAAHGIVTMTIGANYLTDSPTHRKEALLDAIVTLKAEQTRIGSPLYYSLNINNFAVGGFSMGGGGAQLAAVSDPTIKAIIALNPYLSNASEADFNHNCPVLITSGELDFIANPNLHANVHYAVTPDSTPKQLYEIQNAGHDPLIGPNGGYGEVGMKVLSWLQAFLNDNHCYCPPILTVPTTASSFTHNIVCEDLFIQGCTDSTACNYNPNATIDDGSCETQSCACPGDLNGDYAITVADVLLTLSEFGCMTNCTADIDGDGFVNVTDILELLSMFGTVC [TEP145] | < 25 µg
QTTAPTSASLNATAGPLSIASASVSSLAASGFGGGTIYYPTTSGRFGVVAISPGYTASQSTIAWLGRRMASHGFVVITIDTNTTLDYPESRATQLRAALDHVINRASTTVRNKVDPARRAVAGHSMGGGGSLIAAEADSTLKAAYPMTPWNISENFSRVRVPTMIIGADGDTIAPVISHARPFYGSIPNTTFKAYGELNNASHFAPNTTNTPIGRYGVAWMKRFVDGDTRYSTFLCGAEHNRYNTSLVFDQYRSNCPY [ESM079] | < 25 µg
ADPGTGGGNGGGNTCQEDCGFERGPDPSVSMLEARNGPFSVRTSRVSGLVSGFGGGTIHYPTGQSGTMGAIVVIPGFVSAESSIDWWGSQLASHGFVVMTIDTNTGFDQPPSRARQINAALDYLVDQNRASGSPVNGMIDTSRLGVIGWSMGGGGTLRVATEGRIKAAIPLAPWDTSSRQFRSVQAPTLIFACGSDLIAPVRSHASPFYNALPNGLDKAYFEISRGSHYCANGGNTNNSRLSRLGVSWMKLHLDQDQRYNQFICGPRHESDRSISEYRGNC [ESM181] | < 25 µg
QTSAPTSSSLNATSGYLSVASENVSSLSASGFGGGTIYYPSTSGQYGLIAISPGFTATESSVAWIGRKLASHGFVAIVINTNTTLDQPASRARQLRAALDHARLRASSTVRSRIDASRQAVAGHSMGGGGSLIAAEDDPTLKASFPLTPWNTTTSFTNVRVPTMIFGADGDTIAAVAAHARPFYASIPSSTKKAYAELNGATHFTPNSRNEAIGRYGVAWMKRFMDNDTRYSTFLCGSEHNSYNTSLRFDRYNSNCPY [ESM123] | < 25 µg
VENGPAPTLASVQADGPYAVSTQSVSGTGFGGGTVYSPNTAGKYAVVAVCPGFTATQSSIAAISRRLATHGFVVVTINTKSTYDFPPSRANQILAALRTVTALTTGPVAGKMDISRQGVAGWSMGGGGAMLAAGMTPGLKGGVAFAPWAQSSNVSSSAVPMSYLAGSADGVAPPSMSTSFYNATPGTTRKMLGVIRGADHNFPKTASQPASYTQVAWMKRFLDSDTRYSQFLNGDSRFSTFRSTGPF [ESM088] | < 25 µg
FNPGSGGGSGGANTCETNCGFERGPDPTLSGLRSGTGPYSVSTVDVPYGSAGFGGGTIHYPTNTSGGKMGAIAVIPGFVSPESSIGWWGPALASQGFVVLTMGTQTPLDSPSARARQLTAGLDHLVEQSNSSSSAISGLVDPSRVAMVGWSMGGGGTLKNAAGDRLSAAIPLAPFDMDMSSYKNIETPTMILGCESDIIAAADLFAVPSYEHIPESTDKAYFEFAGQGHWCANGNNDNNELLSILGVSWMKRYLDKDTRYDQFLCGTNHSSNSAFSQVRDTCN [DP064] | < 25 µg
CSEEPHKAGGPWAGPYEVVTQQVSADDADGGFGDGTVRYPDDGSRDYGVIAASPGLGADESTVAPYGELLASHGFVVITIDTKTPEDSPAQRGRQLLRALDYATERSDAADRADPRRLGVLGHSMGGGGALYAAARNPHIRAAVPLTPYATRRDWHRVEAPTLVVGGSDDEVAPVSEYADAFYEGLSGAREKAYLELKGDHFVATPPDGLVSRQVVAWFGHFLAGAPGSPCPLPSGDGVTESRDTCPFGTRGR [TEP179] | 25.7 µg
QSTTPTSSALNATAGPLAVSTSTVTLASGFGGGTIYYPTTAGSYGLIALCPGFTATETSLAWLARRLASWGFVVVNMNTTTTMDQPASRATQLMAALKYALNSSSSAVRARIDPSRLAVAGHSMGGGGTLIAARDNPTLKAGYPLTPWNSSTNFSGVTVPTMIIGSDGDTVAPVAQHARPFYASLPAATFKAYGELNNATHFTPNSTSTPIGRYGVAWMKRFLDGDTRYSTFLCGSEHAAYATSLVFDRYNQNCPY [ESM187] | < 25 µg
APGPSAPCADCSRGPNPTVASLQSRSGPFTVSTFSVSGYLRGFGNSTVHYPTNATGKMGAIAVIPGYLSYEDSIRWWGPRLASHGFVVITMNTNTIYDQPDSRATQLSRALDYVIEQSNSRSSPISGKVDSTRLGAIGWSMGGGGSLKLSTERSLNAIIPQAPYYAGLNRFNTINTPTMILACSADVVAPVASHASPFYNRIPDATPKAFLEIYGGSHFCANSGYPNEDLLGMYGISWMKRFIDFDSRYSQFLCGPNHAADLRVSEYRENCNY [ESM165] | < 25 µg
QVGPAPSSSSLNATAGPFAVSTSNVILARGFGGGTIYYPSTSGLYGVVAISPGFTATESSVAWLGRRMATHGLVVITINTNTTLDQPASRATQLMAALNYVVNSASSTVRSRVDSTKLAVAGHSMGGGGALIAAEDNPTLKASLPLTPWNLSTSFTRVRVPTLIVGADGDSVASVTVHARPFYASLPASTFKAYAELNLASHFTPNSTNTPIGRYGVAWMKRFVDADTRYSPFLCGAEHNAYNTALVFDRYNQNCPY [ESM153] | < 25 µg
AVQNGPAPTSTSVNAAGTYATASSAVAASASLGFGGGTIYYPTAAGTYGVIALCPGFTATQTSVAWLAQRLATHGFVTLAMNTNNPLLDSPSSRGIQLRAAIAYLTGSSAPAAVKAHVDATRRAVYGHSMGGGGVLYALTSDKTLKAGFPMAPYNTATTSFPTITSATMILTGTGDTTAPPSTYGLPMYNSLPVTTQKAYALLTGAGHS [TEP161] | < 25 µg
